From patent US20250340643A1 come the findings set out here.

Assay [1] addresses CTLA4 on the cells of the reporter gene bioassay (human) (UniProt P16410). Kind of assay: cell-based or functional assay.
The target of assay [2] is recombinant FcRn (UniProt P55899). Kind of assay: SPR, recombinant FcRn immobilized on the sensor; relative to Reference Standard. On the technique in general: In SPR one partner is held on a chip, and binding of the other changes the refractive index at the surface.
Assay [3] addresses CTLA-4 (as used in the CTLA-4 binding assay) (human) (UniProt P16410). Kind of assay: CTLA-4 binding relative to tremelimumab Reference Standard; method not named for this table (competitive ELISA or SPR per the methods). Background: In an ELISA, binding on a coated surface is turned into a signal by an enzyme label.

Chain of recombinant FcRn (P55899 24-297 limits assumed, form in doubt, chain 1 of 2): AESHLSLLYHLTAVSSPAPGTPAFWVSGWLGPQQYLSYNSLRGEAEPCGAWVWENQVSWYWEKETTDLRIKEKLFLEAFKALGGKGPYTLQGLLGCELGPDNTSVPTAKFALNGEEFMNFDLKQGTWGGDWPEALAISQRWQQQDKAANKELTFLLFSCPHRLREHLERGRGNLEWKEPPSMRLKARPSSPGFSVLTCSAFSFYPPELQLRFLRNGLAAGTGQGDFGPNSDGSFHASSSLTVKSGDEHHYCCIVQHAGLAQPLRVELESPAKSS
Chain of recombinant FcRn (chain, as listed by the source limits assumed, form in doubt, chain 2 of 2): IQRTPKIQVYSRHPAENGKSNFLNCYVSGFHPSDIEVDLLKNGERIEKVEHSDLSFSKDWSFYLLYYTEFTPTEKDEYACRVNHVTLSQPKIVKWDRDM
Chain of CTLA-4 (as used in the CTLA-4 binding assay) (human) (P16410 36-161 limits assumed): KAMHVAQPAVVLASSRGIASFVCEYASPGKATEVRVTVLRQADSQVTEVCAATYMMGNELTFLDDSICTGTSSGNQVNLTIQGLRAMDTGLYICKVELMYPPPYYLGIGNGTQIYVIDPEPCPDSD
Chain of CTLA4 on the cells of the reporter gene bioassay (human) (P16410 36-223): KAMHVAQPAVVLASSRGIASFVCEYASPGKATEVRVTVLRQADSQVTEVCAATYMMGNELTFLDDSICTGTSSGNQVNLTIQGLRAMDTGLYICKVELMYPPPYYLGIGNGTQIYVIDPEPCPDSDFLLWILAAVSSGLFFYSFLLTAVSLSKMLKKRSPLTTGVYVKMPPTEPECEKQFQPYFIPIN

“Tremelimumab IEC Fraction D (acidic peak 1), after pH 9 for 7 days (antibody)”: in assay [1], the Rel. Potency (%) (reporter gene bioassay) was 78%. Further, in assay [2], the Rel. FcRn Binding (%) amounted to 95%. The Rel. CTLA-4 Binding (%) in assay [3] was found to be 62%.
